Measurements: article PMC2592702

Molecular target: recombinant mouse PrP, amino acids 23–231 (rmPrP_(23-231)) (mouse)
Assay: ELISA

POM2 monoclonal antibody (IgG)
stoichiometry N: > 2
